Patent US20240132577A1

Biological target: SARS-CoV-2 RBD (reagent of the GenScript sVNT kit L00847) (SARS-CoV-2), P0DTC2
Conditions: remark: other sources report otherwise

B1: Nb21 (VHH)
chain: QVQLVESGGGLVQAGGSLRLSCAVSGLGAHRVGWFRRAPGKEREFVAAIGANGGNTNYLDSVKGRFTISRDNAKNTIYLQMNSLKPQDTAVYYCAARDIETAEYTYWGQGTQVTVSS
  Inhibition Rate (%): 14%
